Data from paper PMC12856154.

Molecular target: persulfide dioxygenase from Pseudomonas aeruginosa (PaPDO) (Pseudomonas aeruginosa)
Assay: SEC; Superdex 75 10/300, 20 mM Tris-HCl pH 8.0, 200 mM NaCl, 1 mL/min; calibrated with protein standards; elution at 10.8 mL

“persulfide dioxygenase from Pseudomonas aeruginosa (PaPDO) (enzyme)” showed a stoichiometry N of 2.
